The values that follow come from paper PMC12578645 (Nature Microbiology, 2025).

The data set “cryo-EM structure” concerns the molecule itself. The experiment in a line: cryo-EM structure.
Another data set deals with T1, gB-Ecto.H516P.L531E (Human alphaherpesvirus 1, strain KOS, H516P | L531E).
T1 construct: also called gB-Ecto.516P.531E; prefusion gB; not shown: 8xHis-Tag, C-terminal, kept
Description: SPR. The note with it: both partners purified.

The target of another data set is T2, gB-Ecto.H516P.L531E.DS (Human alphaherpesvirus 1, strain KOS, H516P | L531E | A240C | E607C).
T2 construct: also called gB-Ecto.H516P.L531E.A240C+E607C (DS); gB-Ecto.516P.531E.DS; not shown: 8xHis-Tag, C-terminal, kept
The experiment in a line: SPR. The conditions noted are these: both partners purified.

Data set [1] deals with T3, HSV-1 gB on infectious HSV-1 virions (Human alphaherpesvirus 1 (HSV-1), …, UniProt P06437).
T3 construct: also called authentic live virus; source: HSV-1 MacIntrye (VR-539; ATCC) propagated in Vero cells, virions purified by ultracentrifugation with a 25% sucrose cushion
The experiment in a line: ELISA; virion-binding ELISA: plates coated with purified authentic live HSV-1 at 50,000 infectious particles per well; monoclonal antibodies in fivefold dilutions from 20 µg/ml. The conditions noted are these: one partner purified. A general note: An ELISA detects its analyte on a solid surface through an enzyme-linked reagent.

B1: gB-Ecto.H516P.L531E (HSV-1 glycoprotein B ectodomain stabilized in the prefusion conformation) (domain or fragment)
chain: not shown
modifications: N-linked glycans (densities seen at 141, 398, 430 and 674)
notes: also called H516P + L531E ectodomain; prefusion gB
In general, stoichiometry N refers to a count of units in the complex or per binding partner. B1: the “stoichiometry N” value in the data set “cryo-EM structure” was 3.

B2: WS.HSV-1.24 Fab (Fab, V domains shown)
VH: QVQLKESGPGLVAPSQSLSITCTVSGFSLTTYGVTWVRQPPGKGLEWLGVIWGDGSTNYHSDLISRLSITKDNSKSQVFLKLSSLQADDTATYYCVSYYGYFDHWGQGTTLTVSS
VL: DIQMTQSPSSLSASLGERVSLTCRASQDIGSSLNWLQQKPDGTIKRLIYATSSLDSGVPKRFSGSRSGSDYSLTISSLESEDFVDYYCLQYASSPPTFGGGTKLEIK
notes: also called WS.HSV-24; source: IgG expressed in Expi293F and purified; reduced and alkylated, digested with immobilized papain; Fab purified (protein G negative selection, Superdex 75 gel filtration)
What is called Kd is the concentration at which binding is half-saturated. Low readings indicate a tighter complex, high ones a looser complex. B2: the values for the Kd in the data set with gB-Ecto.H516P.L531E and with gB-Ecto.H516P.L531E.DS were 3.2 nM and 1.86 nM, respectively.

B3: WS.HSV-1.24 IgG (antibody, V domains shown)
VH: QVQLKESGPGLVAPSQSLSITCTVSGFSLTTYGVTWVRQPPGKGLEWLGVIWGDGSTNYHSDLISRLSITKDNSKSQVFLKLSSLQADDTATYYCVSYYGYFDHWGQGTTLTVSS
VL: DIQMTQSPSSLSASLGERVSLTCRASQDIGSSLNWLQQKPDGTIKRLIYATSSLDSGVPKRFSGSRSGSDYSLTISSLESEDFVDYYCLQYASSPPTFGGGTKLEIK
notes: also called WS.HSV-24; source: Expi293F, purified (variable genes cloned into pVRC8400 with species-specific constant regions)
As for B3, in data set [1], the binding result is “binds”.
